# Measured values taken from the supplement of paper PMC9112550, “Optimization of the antimicrobial peptide Bac7 by deep mutational scanning” (BMC Biology, 2022).
# Tested on: Escherichia coli TOP10
# Test: shrunken log2 fold change of peptide-encoding DNA abundance (4.5 h post-induction vs induction); higher = less antimicrobial activity (less host growth inhibition)
# Details: time post-induction: 4.5 h; library: site-saturation at positions 5, 18, 19, 20
# 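Further: peptides expressed intracellularly from a pBAD plasmid library in pooled LB shake-flask culture, induced with 0.3% L-arabinose, DNA abundance read by NGS, three biological replicates, DESeq2 with apeglm shrinkage.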
row,Sequence,shrunken log2 fold change
1,RRIRSRPPRLPRPRPRPQKGPRP,-0.0456
2,RRIRDRPPRLPRPRPRPCYFPRP,-0.31
3,RRIRPRPPRLPRPRPRPWIHPRP,-0.44
4,RRIRQRPPRLPRPRPRPWSLPRP,-0.0828
5,RRIRARPPRLPRPRPRPFFPPRP,0.527
6,RRIRNRPPRLPRPRPRPVMKPRP,0.0939
7,RRIRGRPPRLPRPRPRPRPGPRP,1.34
8,RRIRNRPPRLPRPRPRPILWPRP,0.123
9,RRIRKRPPRLPRPRPRPHKMPRP,0.105
10,RRIRKRPPRLPRPRPRPDWPPRP,0.168
11,RRIRPRPPRLPRPRPRPVLQPRP,0.162
12,RRIRARPPRLPRPRPRPVDVPRP,-0.113
13,RRIRDRPPRLPRPRPRPKNKPRP,-0.314
14,RRIRKRPPRLPRPRPRPHSGPRP,0.066
15,RRIRYRPPRLPRPRPRPHIYPRP,-0.725
16,RRIRKRPPRLPRPRPRPSEFPRP,0.154
17,RRIRERPPRLPRPRPRPFEMPRP,-0.536
18,RRIRNRPPRLPRPRPRPSFFPRP,-0.367
19,RRIRDRPPRLPRPRPRPYPCPRP,-0.112
20,RRIRPRPPRLPRPRPRPECFPRP,0.122
21,RRIRERPPRLPRPRPRPMNWPRP,0.0377
22,RRIRRRPPRLPRPRPRPIRYPRP,0.0578
23,RRIRYRPPRLPRPRPRPRMIPRP,-0.118
24,RRIRKRPPRLPRPRPRPIHEPRP,-0.0401
25,RRIRKRPPRLPRPRPRPCFAPRP,0.358

row,Sequence,shrunken log2 fold change
1,RRIRFRPPRLPRPRPRPSHFPRP,-0.136
2,RRIRPRPPRLPRPRPRPKHQPRP,0.0315
3,RRIRPRPPRLPRPRPRPWKMPRP,0.0124
4,RRIRIRPPRLPRPRPRPTSEPRP,0.00551
5,RRIRVRPPRLPRPRPRPHDWPRP,0.00123
6,RRIRWRPPRLPRPRPRPQRGPRP,0.115
7,RRIRDRPPRLPRPRPRPQFGPRP,-0.36
8,RRIRRRPPRLPRPRPRPICYPRP,-0.0102
9,RRIRSRPPRLPRPRPRPCLGPRP,-0.127
10,RRIRERPPRLPRPRPRPNEAPRP,-0.0218
11,RRIRMRPPRLPRPRPRPDVSPRP,2.14
12,RRIRSRPPRLPRPRPRPWRAPRP,0.183
13,RRIRLRPPRLPRPRPRPCENPRP,0.00489
14,RRIRYRPPRLPRPRPRPSCGPRP,-0.184
15,RRIRCRPPRLPRPRPRPKYDPRP,-0.605
16,RRIRCRPPRLPRPRPRPEVDPRP,0.0462
17,RRIRVRPPRLPRPRPRPWTKPRP,-0.106
18,RRIRVRPPRLPRPRPRPGEVPRP,0.101
19,RRIRVRPPRLPRPRPRPFISPRP,-0.11
20,RRIRMRPPRLPRPRPRPQVVPRP,0.0936
21,RRIRRRPPRLPRPRPRPFVGPRP,-0.229
22,RRIRCRPPRLPRPRPRPSTGPRP,-0.354
23,RRIRVRPPRLPRPRPRPMKGPRP,-0.01
24,RRIRRRPPRLPRPRPRPQAWPRP,0.0536
25,RRIRGRPPRLPRPRPRPEWAPRP,1.07

row,Sequence,shrunken log2 fold change
1,RRIRSRPPRLPRPRPRPWESPRP,0.0145
2,RRIRHRPPRLPRPRPRPCIWPRP,-0.121
3,RRIRPRPPRLPRPRPRPWAWPRP,0.0719
4,RRIRWRPPRLPRPRPRPSYDPRP,-0.256
5,RRIRCRPPRLPRPRPRPCHVPRP,-0.00144
6,RRIRSRPPRLPRPRPRPDNDPRP,-0.0528
7,RRIRARPPRLPRPRPRPGMEPRP,0.161
8,RRIRARPPRLPRPRPRPASDPRP,0.661
9,RRIRTRPPRLPRPRPRPHPPPRP,0.271
10,RRIRPRPPRLPRPRPRPVRCPRP,0.545
11,RRIRIRPPRLPRPRPRPDYEPRP,-0.0916
12,RRIRSRPPRLPRPRPRPIAPPRP,-0.0336
13,RRIRKRPPRLPRPRPRPPNCPRP,0.0388
14,RRIRYRPPRLPRPRPRPCSIPRP,-0.0204
15,RRIRQRPPRLPRPRPRPEYDPRP,-0.168
16,RRIRHRPPRLPRPRPRPPIVPRP,-0.252
17,RRIRLRPPRLPRPRPRPNFDPRP,0.0771
18,RRIRHRPPRLPRPRPRPNAAPRP,0.299
19,RRIRIRPPRLPRPRPRPRGQPRP,0.413
20,RRIRNRPPRLPRPRPRPMMVPRP,-0.194
21,RRIRGRPPRLPRPRPRPINNPRP,-0.0606
22,RRIRNRPPRLPRPRPRPHIFPRP,-0.0701
23,RRIRMRPPRLPRPRPRPYMVPRP,-0.0313
24,RRIRLRPPRLPRPRPRPVCFPRP,-0.059
25,RRIRDRPPRLPRPRPRPNTKPRP,-0.124

row,Sequence,shrunken log2 fold change
1,RRIRQRPPRLPRPRPRPSNDPRP,-0.357
2,RRIRERPPRLPRPRPRPVVNPRP,-0.257
3,RRIRRRPPRLPRPRPRPKQWPRP,0.294
4,RRIRWRPPRLPRPRPRPNQKPRP,-0.0347
5,RRIRVRPPRLPRPRPRPHMIPRP,-0.463
6,RRIRCRPPRLPRPRPRPRRVPRP,0.342
7,RRIRWRPPRLPRPRPRPLYIPRP,-0.872
8,RRIRLRPPRLPRPRPRPFNRPRP,-0.00257
9,RRIRTRPPRLPRPRPRPVHMPRP,-0.123
10,RRIRQRPPRLPRPRPRPFLSPRP,0.024
11,RRIRQRPPRLPRPRPRPTHYPRP,0.975
12,RRIRKRPPRLPRPRPRPCMKPRP,-0.0153
13,RRIRHRPPRLPRPRPRPYFIPRP,-1.14
14,RRIRIRPPRLPRPRPRPVKRPRP,-0.09
15,RRIRGRPPRLPRPRPRPETGPRP,0.81
16,RRIRCRPPRLPRPRPRPFFFPRP,0.101
17,RRIRARPPRLPRPRPRPYECPRP,-0.327
18,RRIRIRPPRLPRPRPRPAVNPRP,0.131
19,RRIRCRPPRLPRPRPRPDLTPRP,-0.275
20,RRIRQRPPRLPRPRPRPTQVPRP,-0.0311
21,RRIRQRPPRLPRPRPRPKLAPRP,-0.0518
22,RRIRGRPPRLPRPRPRPVKHPRP,0.168
23,RRIRKRPPRLPRPRPRPLFCPRP,0.177
24,RRIRWRPPRLPRPRPRPEMPPRP,0.364
25,RRIRWRPPRLPRPRPRPLSSPRP,-0.0482

row,Sequence,shrunken log2 fold change
1,RRIRRRPPRLPRPRPRPWESPRP,0.0904
2,RRIRLRPPRLPRPRPRPIHSPRP,-1.61
3,RRIRARPPRLPRPRPRPDWGPRP,0.272
4,RRIRSRPPRLPRPRPRPARPPRP,0.691
5,RRIRSRPPRLPRPRPRPHWMPRP,0.0168
6,RRIRIRPPRLPRPRPRPTVNPRP,-0.608
7,RRIRLRPPRLPRPRPRPRLVPRP,0.0317
8,RRIRKRPPRLPRPRPRPKNNPRP,-0.047
9,RRIRKRPPRLPRPRPRPSVSPRP,0.172
10,RRIRARPPRLPRPRPRPADMPRP,0.194
11,RRIRDRPPRLPRPRPRPNHSPRP,-0.33
12,RRIRPRPPRLPRPRPRPSLIPRP,-0.181
13,RRIRARPPRLPRPRPRPVQKPRP,0.198
14,RRIRIRPPRLPRPRPRPYVNPRP,-0.0125
15,RRIRKRPPRLPRPRPRPFFIPRP,-0.061
16,RRIRCRPPRLPRPRPRPVFLPRP,-0.429
17,RRIRDRPPRLPRPRPRPEKDPRP,0.194
18,RRIRTRPPRLPRPRPRPHAQPRP,0.211
19,RRIRARPPRLPRPRPRPDPVPRP,0.688
20,RRIRLRPPRLPRPRPRPQLQPRP,0.037
21,RRIRPRPPRLPRPRPRPKYAPRP,-0.102
22,RRIRIRPPRLPRPRPRPHFKPRP,-0.368
23,RRIRRRPPRLPRPRPRPSNSPRP,-0.108
24,RRIRFRPPRLPRPRPRPAHYPRP,-0.059
25,RRIRARPPRLPRPRPRPIPQPRP,-0.0224
